Substitutions are numbered along the chain they refer to.
T1: recombinant human TL1A (human, UniProt O95150 71-251)
T1 chain: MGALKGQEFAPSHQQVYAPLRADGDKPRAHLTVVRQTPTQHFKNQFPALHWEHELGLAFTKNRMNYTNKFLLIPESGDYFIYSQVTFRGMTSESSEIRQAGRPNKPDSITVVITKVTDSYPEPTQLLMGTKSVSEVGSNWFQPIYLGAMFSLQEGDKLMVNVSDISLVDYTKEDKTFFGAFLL

T2: recombinant cynomolgus monkey TL1A (cynomolgus monkey, UniProt O95150 72-251 (human entry))
T2 chain: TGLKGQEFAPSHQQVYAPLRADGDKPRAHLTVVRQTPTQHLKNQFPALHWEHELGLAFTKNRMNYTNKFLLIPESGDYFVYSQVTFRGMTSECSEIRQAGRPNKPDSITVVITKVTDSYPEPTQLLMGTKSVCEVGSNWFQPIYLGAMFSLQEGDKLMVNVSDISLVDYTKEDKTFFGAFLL

T3: human IL-12 (human, UniProt P29460 23-328; P29459 23-219)
T3 sequence 1: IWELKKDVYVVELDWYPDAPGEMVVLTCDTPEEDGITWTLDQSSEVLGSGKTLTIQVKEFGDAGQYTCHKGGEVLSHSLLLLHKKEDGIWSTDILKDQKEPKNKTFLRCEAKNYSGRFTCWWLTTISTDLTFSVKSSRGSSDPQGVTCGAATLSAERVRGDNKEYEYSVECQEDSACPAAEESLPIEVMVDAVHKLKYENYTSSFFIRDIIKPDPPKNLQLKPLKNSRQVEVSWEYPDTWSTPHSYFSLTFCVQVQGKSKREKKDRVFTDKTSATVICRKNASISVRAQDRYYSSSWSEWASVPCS
T3 sequence 2: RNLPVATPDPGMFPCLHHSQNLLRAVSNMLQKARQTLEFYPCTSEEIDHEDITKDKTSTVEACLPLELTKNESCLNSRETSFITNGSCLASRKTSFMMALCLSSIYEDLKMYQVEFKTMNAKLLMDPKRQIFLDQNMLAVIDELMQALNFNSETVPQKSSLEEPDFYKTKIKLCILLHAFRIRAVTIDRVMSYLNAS

T4: cynomolgus monkey IL-12 (cynomolgus monkey)
T4 chain 1: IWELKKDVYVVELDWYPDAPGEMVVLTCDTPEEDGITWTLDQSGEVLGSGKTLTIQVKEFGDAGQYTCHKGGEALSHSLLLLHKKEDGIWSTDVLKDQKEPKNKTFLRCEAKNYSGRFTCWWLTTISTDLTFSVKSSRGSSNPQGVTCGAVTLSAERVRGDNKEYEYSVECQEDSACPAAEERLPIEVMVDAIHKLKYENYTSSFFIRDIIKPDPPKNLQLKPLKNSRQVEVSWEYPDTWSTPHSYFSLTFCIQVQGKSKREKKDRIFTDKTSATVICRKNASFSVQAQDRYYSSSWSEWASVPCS
T4 chain 2: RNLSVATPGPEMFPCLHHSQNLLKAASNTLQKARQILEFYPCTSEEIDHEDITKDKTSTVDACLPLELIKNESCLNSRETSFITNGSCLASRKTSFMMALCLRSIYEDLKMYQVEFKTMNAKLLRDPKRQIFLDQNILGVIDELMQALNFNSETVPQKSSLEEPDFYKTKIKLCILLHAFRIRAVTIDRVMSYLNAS

T5: human IL-23 (human, UniProt P29460 23-328; Q9NPF7 20-189)
T5 sequence 1: T3 sequence 1
T5 sequence 2: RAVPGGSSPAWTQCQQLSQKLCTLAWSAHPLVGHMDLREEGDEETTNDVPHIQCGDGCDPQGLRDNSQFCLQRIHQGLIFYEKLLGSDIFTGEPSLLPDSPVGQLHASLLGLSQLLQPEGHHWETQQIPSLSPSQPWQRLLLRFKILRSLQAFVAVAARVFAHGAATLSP

T6: cynomolgus monkey IL-23 (cynomolgus monkey, limits assumed)
T6 chain 1: T4 chain 1
T6 chain 2: T5 sequence 2 with T12A, H75R, L131P

T7: cynomolgus monkey IL-12 (cynomolgus monkey)
T7 construct: also called cyno IL-12
T7 chain 1: T4 chain 1
T7 chain 2: T4 chain 2

T8: rat IL-23 (rat, UniProt P43432 23-335; Q91Z84 22-196, limits assumed)
T8 chain 1: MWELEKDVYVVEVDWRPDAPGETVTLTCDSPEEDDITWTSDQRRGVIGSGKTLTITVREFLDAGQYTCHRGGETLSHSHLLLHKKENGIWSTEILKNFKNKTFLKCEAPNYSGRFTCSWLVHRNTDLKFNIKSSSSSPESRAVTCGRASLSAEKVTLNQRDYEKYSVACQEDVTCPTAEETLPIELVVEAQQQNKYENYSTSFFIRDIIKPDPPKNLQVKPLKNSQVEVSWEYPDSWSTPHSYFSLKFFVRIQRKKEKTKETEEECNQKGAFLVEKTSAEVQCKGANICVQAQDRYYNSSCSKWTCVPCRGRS
T8 chain 2: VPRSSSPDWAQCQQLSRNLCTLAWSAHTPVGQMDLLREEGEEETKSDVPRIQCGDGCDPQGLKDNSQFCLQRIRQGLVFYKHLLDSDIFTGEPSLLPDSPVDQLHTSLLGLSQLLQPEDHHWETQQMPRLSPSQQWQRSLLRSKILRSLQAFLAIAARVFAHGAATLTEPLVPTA

B1: p40TL1A-0033 (bispecific antibody, human IgG1, kappa)
chain 1: not shown
chain 2: QVQLVQSGAEVKKPGASVKVSCKASGYDYTYYGISWVRQAPGQGLEWMGWISTYNTGTHYAPSLQGRVTMTTDTSTSTAYMELRSLRSDDTAVYYCARESYYGSGAFRGGMDVWGQGTTVTVSSASTKGPSVFPLAPSSKSTSGGTAALGCLVKDYFPEPVTVSWNSGALTSGVHTFPAVLQSSGLYSLSSVVTVPSSSLGTQTYICNVNHKPSNTKVDKKVEPKSC
heavy: EVQLVQSGAEVKKPGESLKISCKGSGYSFTTYWLGWVRQMPGKGLDWIGIMSPVDSDIRYSPSFQGQVTMSVDKSITTAYLQWNSLKASDTAMYYCARRRPGQGYFDFWGQGTLVTVSSASTKGPSVFPLAPSSKSTSGGTAALGCLVKDYFPEPVTVSWNSGALTSGVHTFPAVLQSSGLYSLSSVVTVPSSSLGTQTYICNVNHKPSNTKVDKKVEPKSCDKTHTCPPCPAPEAAGAPSVFLFPPKPKDTLMISRTPEVTCVVVDVSHEDPEVKFNWYVDGVEVHNAKTKPREEQYNSTYRVVSVLTVLHQDWLNGKEYKCKVSNKALPAPIEKTISKAKGQPREPQVCTLPPSREEMTKNQVSLWCLVKGFYPSDIAVEWESNGQPENNYKTTPPVLDSDGSFFLYSKLTVDKSRWQQGNVFSCSVLHEALHSHYTQKSLSLSPGK
light: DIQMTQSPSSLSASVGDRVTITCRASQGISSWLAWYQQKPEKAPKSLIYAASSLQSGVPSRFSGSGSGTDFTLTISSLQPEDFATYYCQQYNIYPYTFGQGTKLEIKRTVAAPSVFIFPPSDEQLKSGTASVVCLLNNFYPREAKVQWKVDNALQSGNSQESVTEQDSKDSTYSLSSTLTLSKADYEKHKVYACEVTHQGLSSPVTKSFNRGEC
notes: KiH modified-Fd bispecific: TL1A VL-CL-Fc (hole), TL1A mFd, p40 HC (knob), p40 LC; LS
B2: p40TL1A-0033 bispecific antibody (bispecific antibody, human IgG1, kappa)
heavy: B1 heavy
light: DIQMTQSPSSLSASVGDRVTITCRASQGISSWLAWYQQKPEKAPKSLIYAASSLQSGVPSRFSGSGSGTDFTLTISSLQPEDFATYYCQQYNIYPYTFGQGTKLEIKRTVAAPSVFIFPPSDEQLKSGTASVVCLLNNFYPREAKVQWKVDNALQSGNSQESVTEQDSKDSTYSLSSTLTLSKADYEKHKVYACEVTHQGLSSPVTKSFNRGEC
chain 1: not shown
chain 2: B1 chain 2
notes: Single cell KiH, modified Fd format; IgG1 effector-function-minimized Fc with LS mutations

Columns and labels:
[1] = target: T1, recombinant human TL1A; assay: cell-based or functional assay
[2] = target: T2, recombinant cynomolgus monkey TL1A; assay: cell-based or functional assay
[3] = target: T3, human IL-12; assay: cell-based or functional assay
[4] = target: T4, cynomolgus monkey IL-12; assay: cell-based or functional assay
[5] = target: T5, human IL-23; assay: cell-based or functional assay
[6] = target: T6, cynomolgus monkey IL-23; assay: cell-based or functional assay
[7] = target: T7, cynomolgus monkey IL-12; assay: SPR, Biacore 8K+, 37 C; antibody captured by anti-human Fc, cytokine injected
Procedure: (§1) In order to determine binding to TL1A, kinetic assays were conducted at 37° C. using a collection rate of 10 Hz on a Biacore™ T200 instrument (GE Healthcare). […] For the analysis of the p40 binding arm, kinetic assays were conducted at 37° C. using a collection rate of 10 Hz on a Biacore™ 8 K+ instrument (GE Healthcare).

[8] = target: T8, rat IL-23; assay: as above
Procedure: as §1

| Binder | NF-κB assay in TF-1 reporter cells, neutralization relative to TL1A-0002 [1] | NF-κB assay in TF-1 reporter cells, fold-change of neutralization across species (human against cynomolgus monkey TL1A) [2] | STAT4 activation in human whole blood, fold decreased potency (IC50) compared to p40-0003 [3] | KIT-225 STAT4 phosphorylation, fold-change of potency across species (human against cynomolgus monkey IL-12) [4] | STAT3 activation in human whole blood, fold decreased potency (IC50) compared to p40-0003 [5] | KIT-225 STAT3 phosphorylation, fold-change of potency across species (human against cynomolgus monkey IL-23) [6] | Kd [7] | koff [7] | kon [7] | binding result [8] |
| --- | --- | --- | --- | --- | --- | --- | --- | --- | --- | --- |
| B1 | ≤ 2 fold | 1.7 fold | ~2.9 fold | 1.2 fold | ~2.9 fold | 1.2 fold | – | – | – | – |
| B2 | – | – | – | – | – | – | 267 pM | 0.000636 s⁻¹ | 2.38e+06 M⁻¹ s⁻¹ | no binding (tested: 200 nM) |

Source: patent publication US20240059799A1 (Pfizer, published 2024)
